Reference: patent publication US20260258084A1, “New Peptides as Selective IL-23 Receptor Antagonists” (Sanofi, priority 2022, published 2026)
Starred links: 1 amine or outer side, 2 acyl side, 3 side chain; linkers in the order of their positions; H or OH if unused. Positions of bridges follow the written chain, without caps; N, C: chain ends. Non-standard residues stand in square brackets, D forms with d. No end group written: not given here. *: point of attachment. Yde = (2S)-2-amino-3-[4-[2-(dimethylamino)ethoxy]phenyl]propanoic acid, CN(C)CCOc1ccc(C[C@H](N[*:1])C(=O)[*:2])cc1; Phe(4-OMe) = COc1ccc(C[C@H](N[*:1])C(=O)[*:2])cc1; Trp(7-Me) = Cc1cccc2c(C[C@H](N)C(=O)O)c[nH]c12; αMeLys(Me2) = CN(C)CCCC[C@](C)(N)C(=O)O; 2Nal = N[C@@H](Cc1ccc2ccccc2c1)C(=O)O; εLys = N[C@@H](CCCCN[*:1])C(=O)[*:2]; NMe5Ava = CN(CCCCC(=O)[*:2])[*:1]; Palmitoyl = CCCCCCCCCCCCCCCC(=O)*; 3Pal = N[C@@H](Cc1cccnc1)C(=O)O; Dad = desamino-aspartamic acid; Lys(Me) = CNCCCC[C@H](N)C(=O)O; NMeN = CN[C@@H](CC(N)=O)C(=O)O; αMeL = CC(C)C[C@](C)(N)C(=O)O; αMeK = C[C@](N)(CCCCN)C(=O)O; Thp = NC1(C(=O)O)CCOCC1; Aib = CC(C)(N)C(=O)O; Ahx = NCCCCCC(=O)O; Ava = NCCCCC(=O)O; Sar = CNCC(=O)O

Molecular target: T1, IL-23 receptor on the surface of HEK-Blue IL-23 cells (UniProt Q5VWK5 24-629, limits assumed)
T1 sequence (looked up): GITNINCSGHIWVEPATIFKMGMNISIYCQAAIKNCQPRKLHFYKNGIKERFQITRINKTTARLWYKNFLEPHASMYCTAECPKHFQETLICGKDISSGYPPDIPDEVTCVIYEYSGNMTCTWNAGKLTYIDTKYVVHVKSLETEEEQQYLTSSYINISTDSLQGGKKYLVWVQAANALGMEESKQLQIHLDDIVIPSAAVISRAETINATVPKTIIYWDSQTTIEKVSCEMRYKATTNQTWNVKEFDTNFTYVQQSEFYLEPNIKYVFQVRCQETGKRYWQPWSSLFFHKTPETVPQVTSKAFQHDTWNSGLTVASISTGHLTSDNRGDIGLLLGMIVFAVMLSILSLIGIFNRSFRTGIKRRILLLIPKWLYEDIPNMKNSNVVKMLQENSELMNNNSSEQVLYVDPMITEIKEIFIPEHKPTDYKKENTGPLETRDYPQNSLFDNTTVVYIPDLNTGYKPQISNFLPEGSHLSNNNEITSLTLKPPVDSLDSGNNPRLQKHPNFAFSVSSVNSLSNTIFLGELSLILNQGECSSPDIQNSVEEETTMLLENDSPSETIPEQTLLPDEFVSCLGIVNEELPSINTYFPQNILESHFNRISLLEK
Assay: cell-based or functional assay

B1: Compound of SEQ ID NO: 64 (peptide)
peptide: [Ava]CNT[Trp(7-Me)]K(Ac)C[Yde][2Nal][Aib]EN[3Pal][Sar]-NH2
modifications: lactam N-11; disulfide 2-7
SMILES: CC(=O)NCCCC[C@@H]1NC(=O)[C@H](Cc2c[nH]c3c(C)cccc23)NC(=O)[C@H]([C@@H](C)O)NC(=O)[C@H](CC(N)=O)NC(=O)[C@@H]2CSSC[C@H](NC1=O)C(=O)N[C@@H](Cc1ccc(OCCN(C)C)cc1)C(=O)N[C@@H](Cc1ccc3ccccc3c1)C(=O)NC(C)(C)C(=O)N[C@H](C(=O)N[C@@H](CC(N)=O)C(=O)N[C@@H](Cc1cccnc1)C(=O)N(C)CC(N)=O)CCC(=O)NCCCCC(=O)N2
**Q.** Which “pSTAT3 (nM)” value does the source give for B1 here?
**A.** The value was 0.22 nM.

B2: Compound of SEQ ID NO: 58 (peptide)
peptide: [Ava]CNTWK(Ac)C[Yde][2Nal][αMeLys(Me2)]EN[3Pal][Sar]-NH2
modifications: lactam N-11; disulfide 2-7
SMILES: CC(=O)NCCCC[C@@H]1NC(=O)[C@H](Cc2c[nH]c3ccccc23)NC(=O)[C@H]([C@@H](C)O)NC(=O)[C@H](CC(N)=O)NC(=O)[C@@H]2CSSC[C@H](NC1=O)C(=O)N[C@@H](Cc1ccc(OCCN(C)C)cc1)C(=O)N[C@@H](Cc1ccc3ccccc3c1)C(=O)N[C@@](C)(CCCCN(C)C)C(=O)N[C@H](C(=O)N[C@@H](CC(N)=O)C(=O)N[C@@H](Cc1cccnc1)C(=O)N(C)CC(N)=O)CCC(=O)NCCCCC(=O)N2
**Q.** B2 was tested. Which “pSTAT3 (nM)” value did it give?
**A.** The value was 0.1 nM.

B3: Compound of SEQ ID NO: 55 (peptide)
peptide: [Ava]CNT[Trp(7-Me)]K(Ac)C[Yde][2Nal][Thp]ENHX-NH2
modifications: lactam N-11; disulfide 2-7; not fully specified (residue 14); printed as Apt(§1)-C(@2)-N-T-Wim-K[Ac]-C(@2)-Yde-Nal-Thp-E(§1)-N—H-Mep-NH2
**Q.** B3 was tested. Which “pSTAT3 (nM)” value did it give?
**A.** Its value is 0.95 nM.

B4: Compound of SEQ ID NO: 68 (peptide)
peptide: [Dad]C[εLys](Ac)[Trp(7-Me)]LC[Yde][2Nal][αMeL][Lys(Me)]N[3Pal][Sar]-NH2
modifications: lactam (positions not given here); disulfide 2-6; not fully specified (bridges); printed as Dad(§1)-C(§3)(@2)-K[aAc](@3)-Wim-L-C(@2)-Yde-Nal-Mle-Kme(§1)-N-Pal-Sar-NH2; also: Cys2 bonded to ε-NH2 of Lys3 (isopeptide backbone)
**Q.** How did the “pSTAT3 (nM)” value turn out when B4 was run?
**A.** Its value is 2.69 nM.

B5: Compound of SEQ ID NO: 67 (peptide)
peptide: [Ava]C[εLys](Ac)[Trp(7-Me)]K(Ac)C[Yde][2Nal][αMeK](Palmitoyl)EN[3Pal][Sar]-NH2
modifications: lactam N-10; disulfide 2-6; also: Cys2 carboxyl joined to epsilon-NH2 of Lys3 (isopeptide bond), Lys3 alpha-N acetylated
**Q.** B5 was tested. Which “pSTAT3 (nM)” value did it give?
**A.** Its value is 22.6 nM.

B6: Compound of SEQ ID NO: 60 (peptide)
peptide: [NMe5Ava]C[εLys](Ac)[Trp(7-Me)]K(Ac)C[Yde][2Nal][Aib]ENH-NH2
modifications: lactam N-10; disulfide 2-6; also: Cys2 bonded to epsilon-NH2 of Lys3, Lys3 alpha-amine acetylated (K[aAc])
**Q.** With B6 as the binder, how does the “pSTAT3 (nM)” value read?
**A.** The value was 0.16 nM.

B7: Compound of SEQ ID NO: 63 (peptide)
peptide: [Ava]CNT[Trp(7-Me)]QC[Yde][2Nal][αMeL]EN[3Pal][Sar]-NH2
modifications: lactam N-11; disulfide 2-7
SMILES: Cc1cccc2c(C[C@@H]3NC(=O)[C@H]([C@@H](C)O)NC(=O)[C@H](CC(N)=O)NC(=O)[C@@H]4CSSC[C@H](NC(=O)[C@H](CCC(N)=O)NC3=O)C(=O)N[C@@H](Cc3ccc(OCCN(C)C)cc3)C(=O)N[C@@H](Cc3ccc5ccccc5c3)C(=O)N[C@@](C)(CC(C)C)C(=O)N[C@H](C(=O)N[C@@H](CC(N)=O)C(=O)N[C@@H](Cc3cccnc3)C(=O)N(C)CC(N)=O)CCC(=O)NCCCCC(=O)N4)c[nH]c12
**Q.** Which “pSTAT3 (nM)” value does the source give for B7 here?
**A.** The value was 0.2 nM.

B8: Compound of SEQ ID NO: 56 (peptide)
peptide: [Ava]CNT[Trp(7-Me)]K(Ac)C[Yde][2Nal][Thp]ES[3Pal][Sar]-NH2
modifications: lactam N-11; disulfide 2-7
SMILES: CC(=O)NCCCC[C@@H]1NC(=O)[C@H](Cc2c[nH]c3c(C)cccc23)NC(=O)[C@H]([C@@H](C)O)NC(=O)[C@H](CC(N)=O)NC(=O)[C@@H]2CSSC[C@H](NC1=O)C(=O)N[C@@H](Cc1ccc(OCCN(C)C)cc1)C(=O)N[C@@H](Cc1ccc3ccccc3c1)C(=O)NC1(CCOCC1)C(=O)N[C@H](C(=O)N[C@@H](CO)C(=O)N[C@@H](Cc1cccnc1)C(=O)N(C)CC(N)=O)CCC(=O)NCCCCC(=O)N2
**Q.** How did the “pSTAT3 (nM)” value turn out when B8 was run?
**A.** Its value is 0.16 nM.

B9: Compound of SEQ ID NO: 54 (peptide)
peptide: [Ava]CNT[Trp(7-Me)]K(Ac)C[Yde][2Nal][αMeLys(Me2)]EN[dL]-NH2
modifications: lactam N-11; disulfide 2-7
SMILES: CC(=O)NCCCC[C@@H]1NC(=O)[C@H](Cc2c[nH]c3c(C)cccc23)NC(=O)[C@H]([C@@H](C)O)NC(=O)[C@H](CC(N)=O)NC(=O)[C@@H]2CSSC[C@H](NC1=O)C(=O)N[C@@H](Cc1ccc(OCCN(C)C)cc1)C(=O)N[C@@H](Cc1ccc3ccccc3c1)C(=O)N[C@@](C)(CCCCN(C)C)C(=O)N[C@H](C(=O)N[C@@H](CC(N)=O)C(=O)N[C@H](CC(C)C)C(N)=O)CCC(=O)NCCCCC(=O)N2
**Q.** B9 was tested. Which “pSTAT3 (nM)” value did it give?
**A.** The value was 2.59 nM.

B10: Compound of SEQ ID NO: 6 (peptide)
peptide: [Ahx]C[NMeN]TWQC[Phe(4-OMe)][2Nal][Aib]DNN-NH2
modifications: lactam N-11; disulfide 2-7
SMILES: COc1ccc(C[C@@H]2NC(=O)[C@@H]3CSSC[C@H](NC(=O)CCCCCNC(=O)C[C@@H](C(=O)N[C@@H](CC(N)=O)C(=O)N[C@@H](CC(N)=O)C(N)=O)NC(=O)C(C)(C)NC(=O)[C@H](Cc4ccc5ccccc5c4)NC2=O)C(=O)N(C)[C@@H](CC(N)=O)C(=O)N[C@@H]([C@@H](C)O)C(=O)N[C@@H](Cc2c[nH]c4ccccc24)C(=O)N[C@@H](CCC(N)=O)C(=O)N3)cc1
**Q.** For B10, which “pSTAT3 (nM)” value is on record?
**A.** The value was 72.9 nM.

B11: Compound of SEQ ID NO: 62 (peptide)
peptide: [Ava]CNT[Trp(7-Me)]QC[Yde][2Nal][Aib]EN[3Pal][Sar]-NH2
modifications: lactam N-11; disulfide 2-7
SMILES: Cc1cccc2c(C[C@@H]3NC(=O)[C@H]([C@@H](C)O)NC(=O)[C@H](CC(N)=O)NC(=O)[C@@H]4CSSC[C@H](NC(=O)[C@H](CCC(N)=O)NC3=O)C(=O)N[C@@H](Cc3ccc(OCCN(C)C)cc3)C(=O)N[C@@H](Cc3ccc5ccccc5c3)C(=O)NC(C)(C)C(=O)N[C@H](C(=O)N[C@@H](CC(N)=O)C(=O)N[C@@H](Cc3cccnc3)C(=O)N(C)CC(N)=O)CCC(=O)NCCCCC(=O)N4)c[nH]c12
**Q.** How did the “pSTAT3 (nM)” value turn out when B11 was run?
**A.** Its value is 0.2 nM.

B12: Compound of SEQ ID NO: 66 (peptide)
peptide: [Ava]C[εLys](Ac)[Trp(7-Me)]K(Ac)C[Yde][2Nal][Thp]EN[3Pal][Sar]-NH2
modifications: lactam N-10; disulfide 2-6; also: Cys2 carboxyl joined to epsilon-NH2 of Lys3 (isopeptide bond), Lys3 alpha-N acetylated
**Q.** How did the “pSTAT3 (nM)” value turn out when B12 was run?
**A.** The value was 0.15 nM.

B13: Compound of SEQ ID NO: 59 (peptide)
peptide: [Ava]C[εLys](Ac)WK(Ac)C[Yde][2Nal][αMeLys(Me2)]EN[3Pal][Sar]-NH2
modifications: lactam N-10; disulfide 2-6; also: Cys2 bonded to epsilon-NH2 of Lys3, Lys3 alpha-amine acetylated (K[aAc])
**Q.** Which “pSTAT3 (nM)” value does the source give for B13 here?
**A.** The value was 0.07 nM.
